Laboratory results reported in the supplement of paper PMC10567573.
± gives the standard deviation.

Assay: protein stability index of a GFP-peptide fusion (GPS, HEK-293T) (PSI 1-6); higher = more stable
[1] = treatment: DMSO, c terminus: a fixed tail appended
[2] = treatment: MLN4924 1 uM, 8 h, c terminus: a fixed tail appended
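Also: 24-mer peptide tiles fused after GFP, lentivirally expressed, FACS-sorted into six equal bins by GFP/DsRed ratio, decoded by Illumina sequencing, PSI is the read-weighted mean bin number.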

Row | Sequence | protein stability index [1] | protein stability index [2] | protein stability index (treatment: DMSO, c terminus: native) | protein stability index (treatment: MLN4924 1 uM, 8 h, c terminus: native)
1 | RMETPKSREITTLANNQCMATESV [EHMT1] | 4.56 ± 0.22 | 4.79 ± 0.08 |  | 
2 | SSSYAGQFRVIGPRHPIRALVGDE [MOG] | 3.54 ± 0.31 | 3.48 ± 0.32 |  | 
3 | PEASDQEEHLSPLDFLHSANFSLG [RNF180] | 4.66 ± 0.17 | 4.64 ± 0.36 |  | 
4 | SWKESSMNIIELEIPDQNIDVEAL [GMCL1] | 4.26 ± 0.23 | 4.08 ± 0.29 |  | 
5 | ITNQEELWKMKPRRNLEEDDYLHK [STEAP1] | 4.22 ± 0.41 | 4.02 ± 0.26 |  | 
6 | MVTQILGAMESQVGGGPAGPALPN [ELAVL3] | 2.69 ± 0.098 | 3.01 ± 0.53 |  | 
7 | VKEAPAPTPTSLEVSSPPDTTEEV [PDZK1] | 5.57 ± 0.25 | 5.49 ± 0.3 |  | 
8 | EEGDEDDWASNKVMFKIGDLGHVT [WEE1] | 4.1 ± 0.23 | 4.39 ± 0.2 |  | 
9 | YLIIRTLGKLIPRHQSIFKSNGFF [CDKL4] | 2.74 ± 1.3 | 2.72 ± 1.8 |  | 
10 | PETVRMVLSNMEKLFCIPVHGIRS [IMPA1] | 2.65 ± 0.27 | 2.94 ± 0.3 |  | 
11 | VEQGERALERRRRALQEEERAAAQ [ZBED3] | 5.5 ± 0.2 | 5.29 ± 0.38 |  | 
12 | SQEPDPVQRLQAYTATEQEMQQQM [TRIM14] | 5.39 ± 0.15 | 5.17 ± 0.14 |  | 
13 | RLLGSVQQDLERSLQDASRGDPAH [PBXIP1] | 4.7 ± 0.2 | 4.56 ± 0.46 |  | 
14 | LKKEHPGARDGIRYLEAEFKKGNR [SMG5] | 4.35 ± 0.6 | 4.29 ± 0.24 |  | 
15 | STATSITLTWDSGNPEPVSYYIIQ [PTPRD] | 2.83 ± 0.59 | 2.9 ± 0.65 |  | 
16 | ISLVKREHDFLDRDAIEALCRRLN [DLC1] | 2.69 ± 0.18 | 2.8 ± 0.42 |  | 
17 | APLSSRKHVLYVEHRHLNPDTELK [TCF25] | 3.72 ± 0.35 | 3.87 ± 0.51 |  | 
18 | DSMTSQAKPEALSSPKFREEAAFP [ELOA2] | 4.9 ± 0.24 | 4.89 ± 0.13 |  | 
19 | LLLLLLTFFLRTDAETPPRFTRTP [PTPRD] | 2.32 ± 0.43 | 2.36 ± 0.49 |  | 
20 | GCCVFAFLVGLLFVQRSGNYFVTM [SLC6A17] | 3.39 ± 0.34 | 3.12 ± 0.07 |  | 
21 | GAFDSFLLRFGVPSPSTLEPHPRP [TNXB] | 2.99 ± 0.42 | 2.97 ± 0.35 |  | 
22 | LLPTKSLVALKCTCCYFKFIIEYY [FBXO34] | 2.8 ± 0.59 | 2.83 ± 0.88 |  | 

Row | Sequence | protein stability index [1] | protein stability index [2] | protein stability index (treatment: DMSO, c terminus: native) | protein stability index (treatment: MLN4924 1 uM, 8 h, c terminus: native)
23 | AVINWVKHAKKEREESLPNLLQYV [KLHL12] | 2.02 ± 0.32 | 2.49 ± 0.54 |  | 
24 | AGGQTRLQASDRYRDLAGGTGRSA [FCHSD1] | 4.25 ± 0.41 | 4.35 ± 0.28 |  | 
25 | GGQDGLGAPKDQQQPPQQQPSQQQ [KLHL14] | 5.36 ± 0.5 | 5.4 ± 0.56 |  | 
26 | LLETANQTLQAMDSEDFPQAAKQI [FSD1] | 4.92 ± 0.26 | 4.79 ± 0.17 |  | 
27 | EDQHKLYQQIKAGAYDFPSPEWDT [CAMK2B] | 4.79 ± 0.17 | 4.75 ± 0.12 |  | 
28 | LRGLPGERGTPGLPGPKGDDGKLG [SCARA5] | 4.96 ± 0.33 | 4.96 ± 0.19 |  | 
29 | PYLRFGCLSCRLFYFKLTDLYKKV [CRY1] | 2.55 ± 0.45 | 2.32 ± 0.38 |  | 
30 | HALGSPEKVKACQGQYETIERLRS [TBC1D10A] | 4.03 ± 0.21 | 3.88 ± 0.3 |  | 
31 | SGYHYGVWSCEGCKAFFKRSIQGH [ESR2] | 2.03 ± 0.33 | 2.52 ± 0.41 |  | 
32 | NGSISSAGNSSRNSSQSSSDGSCK [BTBD10] | 5.01 ± 0.23 | 5.2 ± 0.16 |  | 
33 | ENYLEYRQVPGSDPACYEFLWGPR [MAGEA3] | 3.12 ± 0.34 | 3.17 ± 0.36 |  | 
34 | GLAMALEPNTTFLRKSLKAALKHL [FANCE] | 2.48 ± 0.33 | 2.54 ± 0.62 |  | 
35 | TKVRKQEIIKVTEQLIEAISNGDF [CAMK2A] | 2.38 ± 0.32 | 2.66 ± 0.42 |  | 
36 | QETVLVEERRVVHASGDASYSAGD [EPB41L3] | 5.28 ± 0.2 | 5.38 ± 0.24 |  | 
37 | MQNSNECKRNFVAVYDGSSSVEDL [NETO1] | 4.59 ± 0.066 | 4.68 ± 0.22 |  | 
38 | LEVSQLEGSLQQPKAQSAMSPYLV [SMG5] | 3.37 ± 0.21 | 3.46 ± 0.21 |  | 
39 | DCMGIDRQHIPDTYLCERCQPRNL [KMT2E] | 3.13 ± 0.33 | 3.4 ± 0.4 |  | 
40 | GVCQSMCHDKYTKIFNDFKDRMKS [ZMYND11] | 3.11 ± 0.032 | 2.92 ± 0.23 |  | 
41 | AASEAGRAMHLMKKREKQREQMEQ [FAM50A] | 5.05 ± 0.25 | 4.87 ± 0.17 |  | 
42 | MASSAAGCVVIVGSGVIGRSWAML [CRYL1] | 3.7 ± 0.13 | 2.89 ± 1.8 |  | 
43 | LKPAMTQAQDEVEQERRLSEARLS [FCHSD1] | 5.25 ± 0.18 | 5.19 ± 0.25 |  | 
44 | IHLSAPCIYSEVMEALKLQPGLSF [PCMTD1] | 2.33 ± 0.67 | 2.61 ± 0.34 |  | 

Row | Sequence | protein stability index [1] | protein stability index [2] | protein stability index (treatment: DMSO, c terminus: native) | protein stability index (treatment: MLN4924 1 uM, 8 h, c terminus: native)
45 | NYLFMGDYVDRGYYSVETVTLLVA [PPP2CA] | 2.71 ± 0.6 | 2.82 ± 0.56 |  | 
46 | LEGLNLSILKAMGKTKKDYQEASN [NECAB1] | 3.78 ± 0.14 | 3.91 ± 0.22 |  | 
47 | MREQYEAMAERNRRDAEEWFHAKS [KRT13] | 4.81 ± 0.28 | 4.75 ± 0.17 |  | 
48 | RVQQHIESKLLGSNSSRMYFTQTL [MLH1] | 2.37 ± 0.23 | 2.29 ± 0.38 |  | 
49 | EQPHGRSRRREQSSSRNSHLVQHQ [ZNF8] | 4.78 ± 0.23 | 4.76 ± 0.28 |  | 
50 | IKTAVNLPLERDAESFLLKSPIAP [CDC25B] | 3.23 ± 0.24 | 3.14 ± 0.36 |  | 
51 | LLARGTMQPFNYVTLQCLAARALD [FEM1A] | 2.44 ± 0.16 | 2.22 ± 0.29 |  | 
52 | PSVIQEIHQESGKAPSTDDATWAA [C10orf62] | 4.29 ± 0.33 | 4.66 ± 0.34 |  | 
53 | NNLAASQLKLDHYRAALRSCSLVL [FKBP8] | 2.62 ± 0.11 | 2.35 ± 0.27 |  | 
54 | ALAHCHQHGLVLRDLKLCRFVFAD [TRIB3] | 2.44 ± 0.43 | 2.23 ± 0.23 |  | 
55 | TAGQERYRAITSAYYRGAVGALLV [RAB11A] | 2.22 ± 0.24 | 2.19 ± 0.24 |  | 
56 | HEVKCQGKPLAGIYRKREEKRNAG [KMT5A] | 4.64 ± 0.55 | 5.06 ± 0.1 |  | 
57 | SCKENCTCSSCLLRAPTISDLLND [EDARADD] | 4.85 ± 0.41 | 4.83 ± 0.33 |  | 
58 | VRYLNAYTGIVLLRCRKEFYQLVW [POP5] | 1.94 ± 0.34 | 2.46 ± 0.74 |  | 
59 | SRKKPIWNVLMWTSLFLGNGVLLC [SOAT1] | 2.67 ± 0.81 | 2.73 ± 0.61 |  | 
60 | RVLQNLLTIEERYLPQCSYFKCVQ [CCND2] | 3.08 ± 0.22 | 2.69 ± 0.57 |  | 
61 | SNSQPTNESHSIKAILKNISVLAF [SLC29A1] | 2.45 ± 0.46 | 2.43 ± 0.29 |  | 
62 | HGQENIVRILLRRGVDVSLQGKDA [RIPK4] | 2.5 ± 0.087 | 3.13 ± 0.24 |  | 
63 | LETNQQHFHALCHSLLVSTHVPR [M1AP] |  |  | 2.48 ± 0.43 | 3.13 ± 0.9
64 | DLPVVQGSSSFSLKGYPSLMRSQS [TRIM29] | 3.03 ± 0.25 | 3.3 ± 0.24 |  | 
65 | LWRYRTITFSGRPSRVHASEVESA [FBXO39] | 2.79 ± 0.27 | 3 ± 0.33 |  | 
